Results: FireProtDB (doi:10.1021/ja068849o)

Conditions: Escherichia coli (strain K12); pH 9.2; 37 °C; Urea; Fluorescence; Glycine 10 mM; reversible: Yes; whole UniProt chain shown

B1: Outer membrane protein A wild type, P0A910 (protein)
chain: MKKTAIAIAVALAGFATVAQAAPKDNTWYTGAKLGWSQYHDTGFINNNGPTHENQLGAGAFGGYQVNPYVGFEMGYDWLGRMPYKGSVENGAYKAQGVQLTAKLGYPITDDLDIYTRLGGMVWRADTKSNVYGKNHDTGVSPVFAGGVEYAITPEIATRLEYQWTNNIGDAHTIGTRPDNGMLSLGVSYRFGQGEAAPVVAPAPAPAPEVQTKHFTLKSDVLFNFNKATLKPEGQAALDQLYSQLSNLDPKDGSVVVLGYTDRIGSDAYNQGLSERRAQSVVDYLISKGIPADKISARGMGESNPVTGNTCDNVKQRAALIDCLAPDRRVEIEVKGIKDVVTQPQA
  denaturant m value: 2.2 kcal/mol/M
  denaturant midpoint (higher = more stable): 4.2 M
  unfolding free energy: 9.3 kcal/mol
